B1: sus1 promoter probe (dsDNA)
DNA 1: CTGAACCGTTTTTCGGTTTCAGTTTTCTCTGCTGACTGAAGCTTC
DNA 2: GAAGCTTCAGTCAGCAGAGAAAACTGAAACCGAAAAACGGTTCAG
B2: c1 promoter probe (dsDNA)
DNA 1: CATCATTCGATCAGTTTTCGTTCTGATGCAGTTTTCGATAAATGC
DNA 2: GCATTTATCGAAAACTGCATCAGAACGAAAACTGATCGAATGATG
B3: fl3 promoter probe (dsDNA)
DNA 1: TGTACAAATATTTCTACTGACAGTTTTTAAGAAACCACCTGTGGA
DNA 2: TCCACAGGTGGTTTCTTAAAAACTGTCAGTAGAAATATTTGTACA
B4: vp1 promoter probe (dsDNA)
DNA 1: GTCCTTGAAACTGCAATCCAAATCTACGCAACCGTTTTGCATGCCACTGTTTGTA
DNA 2: TACAAACAGTGGCATGCAAAACGGTTGCGTAGATTTGGATTGCAGTTTCAAGGAC

Molecular target: DED1 (R2R3-MYB), GST fusion (Zea mays, UniProt A0A804M0V9 1-450)
Experiment: EMSA; 5 mM Mg2+; EMSA: 50 ng DED1-GST, 6 ng probe in 20 uL 10 mM Tris pH 7.5, 50 mM KCl, 1 mM DTT, 2.5% glycerol, 5 mM MgCl2, 50 ug/uL (so in the source) poly(dI-dC), 0.05% NP-40, 25
Conditions: protein: recombinant; tags: GST (N-terminal, pGEX-4T-1); label: biotin 3' end on one strand; blunt

Chain of DED1 (R2R3-MYB), GST fusion (A0A804M0V9 entry or part of it): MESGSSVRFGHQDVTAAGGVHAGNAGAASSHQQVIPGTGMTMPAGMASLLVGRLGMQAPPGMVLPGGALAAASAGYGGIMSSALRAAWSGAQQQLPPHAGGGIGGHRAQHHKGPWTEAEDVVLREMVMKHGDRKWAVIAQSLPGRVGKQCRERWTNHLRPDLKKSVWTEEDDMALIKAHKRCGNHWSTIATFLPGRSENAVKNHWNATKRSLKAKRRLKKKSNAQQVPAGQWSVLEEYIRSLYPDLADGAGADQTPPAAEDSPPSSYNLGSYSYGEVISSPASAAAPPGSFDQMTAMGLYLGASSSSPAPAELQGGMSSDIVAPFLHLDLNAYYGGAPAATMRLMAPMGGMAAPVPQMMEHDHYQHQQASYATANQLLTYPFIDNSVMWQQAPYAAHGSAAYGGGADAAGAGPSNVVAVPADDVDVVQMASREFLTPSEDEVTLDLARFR

Binding result, binds:
B1, B2, B3, B4

Reference: paper PMC9470594, “Paternal imprinting of dosage-effect defective1 contributes to seed weight xenia in maize”
